Measured values as given in patent publication US20260092093A1 (TJ BIOPHARMA SHANGHAI, published 2026).
Changes are numbered by the printed parent chain.

B1: IL-18 variant polypeptide M1 (ligand)
chain: YFPKLKSKLSVIRNLNDQVLFIDQGNRPLFEDMTDSDCRDNAPRTIFIISMYKHSDRRGMAVTISVKCEKISTLSCENKIISFKEMNPPDVIKDTKSDIIFFQVSVPGHDNKMQFESSSYEGYFLACEKERDLFKLILKKEDELGDRSIMFTVQNED
B2: IL-18 variant polypeptide M2 (ligand)
chain: B1 chain with P3S, H54W, D56P, R57D, V91G, V104T
B3: IL-18 variant polypeptide M3 (ligand)
chain: B1 chain with H54W, D56H, R57V, V91A, V104Y
B4: IL-18 variant polypeptide M4 (ligand)
chain: B1 chain with H54W, D56G, R57V, V104F
B5: IL-18 variant polypeptide M5 (ligand)
chain: B1 chain with P3E, K6T, H54W, D56P, R57W, V104T, N155K
B6: IL-18 variant polypeptide M7 (ligand)
chain: B1 chain with K6R, D56T, R57A, V91A, V104R
B7: IL-18 variant polypeptide M9 (ligand)
chain: B1 chain with K6R, H54W, D56R, R57A, V91S, V104S
B8: IL-18 variant polypeptide M10 (ligand)
chain: B1 chain with K6R, H54Q, D56L, R57W, V91S, V104R
B9: IL-18 variant polypeptide M11 (ligand)
chain: B1 chain with K6R, H54S, D56R, R57N, V91G, V104T
B10: IL-18 variant polypeptide M12 (ligand)
chain: B1 chain with H54G, D56G, R57A, V91T, V104R
B11: IL-18 variant polypeptide M13 (ligand)
chain: B1 chain with H54Q, D56I, R57W, V91N, V104R
B12: IL-18 variant polypeptide M14 (ligand)
chain: B1 chain with P3N, H54P, D56S, R57S, V91R, V104A
B13: IL-18 variant polypeptide M15 (ligand)
chain: B1 chain with K6R, H54S, D56Y, R57T, V91G, V104R
B14: IL-18 variant polypeptide M16 (ligand)
chain: B1 chain with K6R, H54S, D56R, R57N, V91G, V104S
B15: IL-18 variant polypeptide M17 (ligand)
chain: B1 chain with K6R, H54L, D56T, R57A, V91G, V104R
B16: SEQ ID NO 95 (ligand)
chain: B1 chain with P3W, K6S, H54L, D56T, R57W, V91Y, V104R
B17: SEQ ID NO 96 (ligand)
chain: B1 chain with K6H, H54R, D56T, R57L, V91G, V104R
B18: SEQ ID NO 97 (ligand)
chain: B1 chain with H54T, D56F, R57N, V104R
B19: SEQ ID NO 98 (ligand)
chain: B1 chain with K6T, H54Y, D56T, V91N, V104R
B20: SEQ ID NO 100 (ligand)
chain: B1 chain with P3S, K6P, H54Y, D56T, R57W, V91F, V104S
B21: SEQ ID NO 101 (ligand)
chain: B1 chain with H54L, D56R, R57T, V91F, V104S
B22: SEQ ID NO 102 (ligand)
chain: B1 chain with K6R, H54F, D56N, R57F, V91A, V104S
B23: SEQ ID NO 103 (ligand)
chain: B1 chain with P3S, K6P, H54W, D56P, V91I, V104S
B24: SEQ ID NO 106 (ligand)
chain: B1 chain with K6S, H54A, D56S, R57L, V91S, V104R
B25: SEQ ID NO 107 (ligand)
chain: B1 chain with K6T, H54T, D56Y, R57E, V104R
B26: SEQ ID NO 108 (ligand)
chain: B1 chain with K6G, H54Q, D56H, R57Y, V91N, V104R
B27: SEQ ID NO 109 (ligand)
chain: B1 chain with P3K, K6P, H54L, D56S, R57E, V91N, V104R
B28: SEQ ID NO 110 (ligand)
chain: B1 chain with K6N, H54L, D56P, V91N, V104R
B29: SEQ ID NO 111 (ligand)
chain: B1 chain with K6E, H54Y, D56S, R57K, V91G, V104R
B30: SEQ ID NO 112 (ligand)
chain: B1 chain with K6R, D56T, R57N, V91I, V104I
B31: SEQ ID NO 113 (ligand)
chain: B1 chain with K6R, H54I, D56I, R57S, V91N, V104R
B32: SEQ ID NO 115 (ligand)
chain: B1 chain with K6G, H54I, D56H, R57D, V91T, V104S
B33: SEQ ID NO 118 (ligand)
chain: B1 chain with K6A, H54W, D56N, R57A, V91S, V104R

How the values were obtained:
[1] = biological target: T1, recombinant hIL-18Rα extracellular domain (human, UniProt Q13478 22-329, biotin label (selection) or fluorescent probe (single-clone FACS), sites not given); experiment: single-clone FACS, yeast display, 10 nM labelled hIL-18Rα ECD
T1 construct: extracellular domain; also called hIL-18Rα ECD; hIL-18Rα-ECD
T1 sequence (looked up): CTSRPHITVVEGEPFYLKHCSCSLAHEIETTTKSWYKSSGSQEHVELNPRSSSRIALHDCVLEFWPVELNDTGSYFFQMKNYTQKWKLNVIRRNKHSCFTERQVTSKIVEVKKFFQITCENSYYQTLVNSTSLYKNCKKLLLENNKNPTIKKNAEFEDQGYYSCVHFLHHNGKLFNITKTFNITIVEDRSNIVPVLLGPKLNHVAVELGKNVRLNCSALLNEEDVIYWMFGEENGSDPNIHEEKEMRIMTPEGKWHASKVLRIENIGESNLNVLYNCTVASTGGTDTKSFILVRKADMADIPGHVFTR
Description: Following the screens described in Example 2, single clone FACS analysis was performed to verify the binding of selected yeast cell surface-expressed IL-18 variant polypeptides from Round 4 and Round 5 to 10 nM hIL-18Rα-ECD. Briefly, each yeast clone at the same density was incubated with 10 nM IL-18Rα-ECD labeled by fluorescent probe, respectively, followed by washing step. Then the ratio of fluorescent positive IL-18Rα ECD binding yeasts in the population of each clone were analyzed.

[2] = biological target: T2, hIL-18Rα ECD-Fc fusion protein (human, UniProt Q13478 22-329); experiment: BLI (Octet RED96), hIL-18Rα ECD-Fc on Protein A sensor
T2 construct: extracellular domain; captured on Protein A sensor
T2 sequence (looked up): T1 sequence (looked up)
Description: The affinities of IL-18 variant polypeptides for hIL-18Rα were assessed by Biolayer Interferometry (BLI) on Octet RED96 using Protein A sensor coated with hIL-18Rα ECD-Fc fusion protein, and WT hIL-18 was used as a control.

Binder	% of fluorescence positive cells [1] [%]	Kd [2] [nM]	Response (nm) [2] [nm]	koff [2] [s⁻¹]	kon [2] [M⁻¹ s⁻¹]
B1	89.8	2030	0.0186	0.111	54400
B2	91.6	12200	0.0184	0.0499	4090
B3	93.3	2140	0.057	0.0431	20100
B4	44.9	39.1	0.0326	0.017	436000
B5	96	38.8	0.0468	0.0149	383000
B6	93.8	11.9	0.0222	0.0271	2.27e+06
B7	36.1	4.88	< 0.02	0.0108	2.21e+06
B8	68.1	48.6	0.0788	0.0235	483000
B9	83.6	68.2	0.08	0.0189	277000
B10	88.3	24.9	0.186	0.0107	427000
B11	96.4	11.6	0.31	0.0038	327000
B12	88.3	23.6	0.218	0.00588	250000
B13	95	36.7	0.122	0.0183	499000
B14	88.5	42.6	0.111	0.0177	415000
B15	87.1	67.7	0.0784	0.0231	340000
B16	3.45				
B17	2.79				

Binder	% of fluorescence positive cells [1] [%]	Kd [2] [nM]	Response (nm) [2] [nm]	koff [2] [s⁻¹]	kon [2] [M⁻¹ s⁻¹]
B18	2.66				
B19	2.36				
B20	2.16				
B21	1.91				
B22	1.64				
B23	1.44				
B24	1.34				
B25	1.23				
B26	1.08				
B27	0.98				
B28	0.71				
B29	0.69				
B30	0.69				
B31	0.61				
B32	0.35				
B33	0.15				
